# Assay results reported in publication PMC3397946, “Identification and Characterization of the Cognate Anti-Sigma Factor and Specific Promoter Elements of a T. tengcongensis ECF Sigma Factor”.
# T1: Tt-RpoE1 (Thermoanaerobacter tengcongensis MB4T, UniProt Q8RCT7 1-162)
# T1 sequence: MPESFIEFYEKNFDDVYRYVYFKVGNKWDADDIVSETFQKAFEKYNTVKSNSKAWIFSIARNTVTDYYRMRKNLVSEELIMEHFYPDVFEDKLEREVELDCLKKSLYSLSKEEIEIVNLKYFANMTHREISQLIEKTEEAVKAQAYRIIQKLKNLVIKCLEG
# T2: Tt-TolB-C (Thermoanaerobacter tengcongensis MB4T, UniProt Q8RCT8 62-645)
# T2 sequence: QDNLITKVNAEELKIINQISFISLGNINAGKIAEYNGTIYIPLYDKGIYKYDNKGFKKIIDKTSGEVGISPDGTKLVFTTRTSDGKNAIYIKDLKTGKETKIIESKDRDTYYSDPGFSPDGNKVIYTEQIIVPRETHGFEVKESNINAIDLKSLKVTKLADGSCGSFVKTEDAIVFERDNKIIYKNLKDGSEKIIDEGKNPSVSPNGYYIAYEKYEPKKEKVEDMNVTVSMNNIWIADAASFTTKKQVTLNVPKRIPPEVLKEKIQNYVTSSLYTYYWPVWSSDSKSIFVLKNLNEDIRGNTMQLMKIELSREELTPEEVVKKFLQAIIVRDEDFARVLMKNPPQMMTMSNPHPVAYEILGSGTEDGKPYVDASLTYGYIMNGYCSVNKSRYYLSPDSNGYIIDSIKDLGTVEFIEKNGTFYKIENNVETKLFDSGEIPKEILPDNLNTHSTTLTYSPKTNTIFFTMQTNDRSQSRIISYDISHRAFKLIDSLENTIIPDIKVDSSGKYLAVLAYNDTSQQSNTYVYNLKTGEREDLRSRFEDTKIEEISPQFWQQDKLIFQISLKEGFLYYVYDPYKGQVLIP
# T3: Tt-TolB (Thermoanaerobacter tengcongensis MB4T, UniProt Q8RCT8 1-645)
# T3 sequence: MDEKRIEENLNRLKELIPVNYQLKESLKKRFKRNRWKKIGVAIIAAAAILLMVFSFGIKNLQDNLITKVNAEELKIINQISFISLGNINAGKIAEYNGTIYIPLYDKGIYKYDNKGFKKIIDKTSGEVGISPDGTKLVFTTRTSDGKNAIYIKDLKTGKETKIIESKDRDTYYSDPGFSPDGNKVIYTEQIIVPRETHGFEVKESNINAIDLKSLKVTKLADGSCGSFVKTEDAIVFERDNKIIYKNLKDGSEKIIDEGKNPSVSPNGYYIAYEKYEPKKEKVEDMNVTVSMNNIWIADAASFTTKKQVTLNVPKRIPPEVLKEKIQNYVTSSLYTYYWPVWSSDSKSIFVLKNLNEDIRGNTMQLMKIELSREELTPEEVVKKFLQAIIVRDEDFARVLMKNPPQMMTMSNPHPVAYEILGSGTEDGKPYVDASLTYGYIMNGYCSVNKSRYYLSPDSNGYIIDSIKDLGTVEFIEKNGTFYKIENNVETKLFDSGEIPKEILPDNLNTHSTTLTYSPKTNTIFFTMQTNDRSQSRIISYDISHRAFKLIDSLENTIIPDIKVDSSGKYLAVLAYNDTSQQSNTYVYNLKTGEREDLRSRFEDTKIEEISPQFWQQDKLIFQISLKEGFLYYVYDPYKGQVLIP
# T4: Tt-RpoE1;Tt-TolB (Thermoanaerobacter tengcongensis …, UniProt Q8RCT7;Q8RCT8 1-162;1-645, |)
# T4 sequence 1: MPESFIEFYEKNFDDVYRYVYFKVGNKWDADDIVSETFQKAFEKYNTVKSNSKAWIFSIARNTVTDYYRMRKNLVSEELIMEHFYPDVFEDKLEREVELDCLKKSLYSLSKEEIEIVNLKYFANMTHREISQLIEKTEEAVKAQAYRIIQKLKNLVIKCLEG
# T4 sequence 2: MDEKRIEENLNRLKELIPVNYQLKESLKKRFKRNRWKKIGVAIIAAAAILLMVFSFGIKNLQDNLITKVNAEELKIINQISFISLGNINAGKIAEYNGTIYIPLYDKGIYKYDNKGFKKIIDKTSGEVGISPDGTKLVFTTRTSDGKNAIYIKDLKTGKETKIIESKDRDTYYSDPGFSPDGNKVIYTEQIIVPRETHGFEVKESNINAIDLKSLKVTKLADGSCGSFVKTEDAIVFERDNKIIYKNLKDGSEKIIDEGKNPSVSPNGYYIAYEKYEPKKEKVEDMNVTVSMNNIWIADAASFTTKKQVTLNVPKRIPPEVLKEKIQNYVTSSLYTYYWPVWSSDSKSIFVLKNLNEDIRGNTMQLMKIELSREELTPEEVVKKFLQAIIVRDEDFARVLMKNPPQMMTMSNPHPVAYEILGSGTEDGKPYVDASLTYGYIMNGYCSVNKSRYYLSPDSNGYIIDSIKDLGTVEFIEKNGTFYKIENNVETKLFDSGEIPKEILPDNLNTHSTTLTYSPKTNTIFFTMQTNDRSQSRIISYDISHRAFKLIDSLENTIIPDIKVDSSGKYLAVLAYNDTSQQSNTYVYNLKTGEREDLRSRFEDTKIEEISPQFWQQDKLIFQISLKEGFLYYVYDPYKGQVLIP
# T5: Tt-RpoE1 R69A (Thermoanaerobacter tengcongensis MB4T, UniProt Q8RCT7 1-162, R69A)
# T5 sequence: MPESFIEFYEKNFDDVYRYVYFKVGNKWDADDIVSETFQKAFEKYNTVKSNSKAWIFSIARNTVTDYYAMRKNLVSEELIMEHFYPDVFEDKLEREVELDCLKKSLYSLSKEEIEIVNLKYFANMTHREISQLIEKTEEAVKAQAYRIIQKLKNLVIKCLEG
# T6: Tt-RpoE1 Y67A (Thermoanaerobacter tengcongensis MB4T, UniProt Q8RCT7 1-162, Y67A)
# T6 sequence: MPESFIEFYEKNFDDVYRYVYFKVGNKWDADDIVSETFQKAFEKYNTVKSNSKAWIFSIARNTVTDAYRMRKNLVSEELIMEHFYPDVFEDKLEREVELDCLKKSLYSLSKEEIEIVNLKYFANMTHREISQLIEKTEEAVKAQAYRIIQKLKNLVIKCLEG
# Legend:
# [1] = biological target: T1, Tt-RpoE1; experiment: EMSA; 5 uM protein; little effect; 50 mM Tris-HCl pH 8.0, 10 mM MgAc2, 30 mM NaCl, 1 mM DTT, 5% glycerol, 30 ug/ml BSA, 0.5 mM EDTA, 1 ug poly(dI-dC), 20 fmol probe in 20 ul, 25 C, 20 min; conditions: protein: recombinant; tags: His (pET28a); label: 5'-32P top strand; fork: top 3' overhang 12 nt
# [2] = biological target: T2, Tt-TolB-C; experiment: EMSA; 5 uM, alone; 50 mM Tris-HCl pH 8.0, 10 mM MgAc2, 30 mM NaCl, 1 mM DTT, 5% glycerol, 30 ug/ml BSA, 0.5 mM EDTA, 1 ug poly(dI-dC), 20 fmol probe in 20 ul, 25 C, 20 min; conditions: protein: recombinant; tags: His (pET28a); label: 5'-32P top strand; fork: top 3' overhang 10 nt
# [3] = biological target: T3, Tt-TolB; experiment: as above; conditions: protein: recombinant; tags: His (pET28a); label: 5'-32P top strand; fork: top 3' overhang 10 nt
# [4] = biological target: T1, Tt-RpoE1; experiment: EMSA; 5 uM protein; 50 mM Tris-HCl pH 8.0, 10 mM MgAc2, 30 mM NaCl, 1 mM DTT, 5% glycerol, 30 ug/ml BSA, 0.5 mM EDTA, 1 ug poly(dI-dC), 20 fmol probe in 20 ul, 25 C, 20 min; conditions: protein: recombinant; tags: His (pET28a); label: 5'-32P top strand; fork: top 3' overhang 10 nt
# [5] = biological target: T4, Tt-RpoE1;Tt-TolB; experiment: EMSA; 5 uM each; supershifted complex; 50 mM Tris-HCl pH 8.0, 10 mM MgAc2, 30 mM NaCl, 1 mM DTT, 5% glycerol, 30 ug/ml BSA, 0.5 mM EDTA, 1 ug poly(dI-dC), 20 fmol probe in 20 ul, 25 C, 20 min; conditions: protein: recombinant;recombinant; tags: His (pET28a);His (pET28a); label: 5'-32P top strand; fork: top 3' overhang 10 nt
# [6] = biological target: T1, Tt-RpoE1; experiment: EMSA; 5 uM protein; strongest; 50 mM Tris-HCl pH 8.0, 10 mM MgAc2, 30 mM NaCl, 1 mM DTT, 5% glycerol, 30 ug/ml BSA, 0.5 mM EDTA, 1 ug poly(dI-dC), 20 fmol probe in 20 ul, 25 C, 20 min; conditions: protein: recombinant; tags: His (pET28a); label: 5'-32P top strand; fork: top 3' overhang 12 nt
# [7] = biological target: T1, Tt-RpoE1; experiment: EMSA; 5 uM protein; abolished; 50 mM Tris-HCl pH 8.0, 10 mM MgAc2, 30 mM NaCl, 1 mM DTT, 5% glycerol, 30 ug/ml BSA, 0.5 mM EDTA, 1 ug poly(dI-dC), 20 fmol probe in 20 ul, 25 C, 20 min; conditions: protein: recombinant; tags: His (pET28a); label: 5'-32P top strand; fork: top 3' overhang 10 nt
# [8] = biological target: T1, Tt-RpoE1; experiment: EMSA; 5 uM protein; parental; 50 mM Tris-HCl pH 8.0, 10 mM MgAc2, 30 mM NaCl, 1 mM DTT, 5% glycerol, 30 ug/ml BSA, 0.5 mM EDTA, 1 ug poly(dI-dC), 20 fmol probe in 20 ul, 25 C, 20 min; conditions: protein: recombinant; tags: His (pET28a); label: 5'-32P top strand; fork: top 3' overhang 12 nt
# [9] = biological target: T5, Tt-RpoE1 R69A; experiment: EMSA; 5 uM protein; affinity remained; 50 mM Tris-HCl pH 8.0, 10 mM MgAc2, 30 mM NaCl, 1 mM DTT, 5% glycerol, 30 ug/ml BSA, 0.5 mM EDTA, 1 ug poly(dI-dC), 20 fmol probe in 20 ul, 25 C, 20 min; conditions: protein: recombinant; tags: His (pET28a); label: 5'-32P top strand; fork: top 3' overhang 12 nt
# [10] = biological target: T6, Tt-RpoE1 Y67A; experiment: as above; conditions: protein: recombinant; tags: His (pET28a); label: 5'-32P top strand; fork: top 3' overhang 12 nt
binder,measurement,setting,value
D-5-BM4 (-9TATA-6 to CCCC) (dsDNA) DNA 1: TGTTACCTTTTGTGTAGATTTTCGTCCCCCAAGGTG DNA 2: CGAAAATCTACACAAAAGGTAACA,binding result,[1],binds
T+1/B-10 (dsDNA) DNA 1: GGTATTGTTACCTTTTGTGTAGATTTTCGTCTATAAAGGTG DNA 2: GACGAAAATCTACACAAAAGGTAACAATACC,binding result,[2],no binding
same,binding result,[3],no binding
same,binding result,[4],binds
same,binding result,[5],binds
T+1/B-12 (dsDNA) DNA 1: GGTATTGTTACCTTTTGTGTAGATTTTCGTCTATAAAGGTG DNA 2: CGAAAATCTACACAAAAGGTAACAATACC,binding result,[6],binds
D-5-6c (-30C to T) (dsDNA) DNA 1: TGTTATCTTTTGTGTAGATTTTCGTCTATAAAGGTG DNA 2: GACGAAAATCTACACAAAAGATAACA,binding result,[7],no binding
D-5/-12 (dsDNA) DNA 1: TGTTACCTTTTGTGTAGATTTTCGTCTATAAAGGTG DNA 2: CGAAAATCTACACAAAAGGTAACA,binding result,[8],binds
same,binding result,[9],binds
same,binding result,[10],binds
D-5-b5t/-12 (-9T to G) (dsDNA) DNA 1: TGTTACCTTTTGTGTAGATTTTCGTCGATAAAGGTG DNA 2: CGAAAATCTACACAAAAGGTAACA,binding result,[1],binds
D-5-B1C (-13C to T) (dsDNA) DNA 1: TGTTACCTTTTGTGTAGATTTTTGTCTATAAAGGTG DNA 2: CAAAAATCTACACAAAAGGTAACA,binding result,[1],binds
